In article PMC9482650, “Quantitative fragmentomics allow affinity mapping of interactomes” (Nature Communications, 2022):

T1: SNTB1, Q13884
T1 sequence (Q13884 107-205, limits assumed, looked up): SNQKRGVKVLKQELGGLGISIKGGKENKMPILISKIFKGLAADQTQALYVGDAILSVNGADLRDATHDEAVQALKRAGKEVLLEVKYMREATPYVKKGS

T2: RAPGEF6, Q8TEU7
T2 sequence (Q8TEU7 525-625, limits assumed, looked up): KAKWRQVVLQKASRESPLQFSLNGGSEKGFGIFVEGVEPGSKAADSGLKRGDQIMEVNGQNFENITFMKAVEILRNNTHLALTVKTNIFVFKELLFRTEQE

T3: MPDZ_10, O75970
T3 sequence (O75970 1624-1722, limits assumed, looked up): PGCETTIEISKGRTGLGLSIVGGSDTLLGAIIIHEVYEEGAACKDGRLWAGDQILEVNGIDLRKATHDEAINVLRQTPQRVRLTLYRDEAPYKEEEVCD

T4: APBA2_1, Q99767
T4 sequence (Q99767 563-664, limits assumed, looked up): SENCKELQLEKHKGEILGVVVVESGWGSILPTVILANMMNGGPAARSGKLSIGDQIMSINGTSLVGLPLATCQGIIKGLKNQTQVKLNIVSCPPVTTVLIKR

T5: MPP6, Q9NZW5
T5 sequence (Q9NZW5 125-219, limits assumed, looked up): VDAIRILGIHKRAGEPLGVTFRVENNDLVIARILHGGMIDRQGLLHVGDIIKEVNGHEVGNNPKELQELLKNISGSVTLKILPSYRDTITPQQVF

T6: ARHGEF11, O15085
T6 sequence (O15085 42-136, limits assumed, looked up): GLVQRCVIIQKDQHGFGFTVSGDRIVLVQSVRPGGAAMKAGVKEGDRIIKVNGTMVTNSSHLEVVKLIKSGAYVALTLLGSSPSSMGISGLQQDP

T7: APBA2_2, Q99767
T7 sequence (Q99767 654-744, limits assumed, looked up): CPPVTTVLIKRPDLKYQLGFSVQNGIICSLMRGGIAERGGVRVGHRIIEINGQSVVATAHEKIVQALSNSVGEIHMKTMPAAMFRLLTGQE

T8: PDZD2_2, O15018
T8 sequence (O15018 329-429, limits assumed, looked up): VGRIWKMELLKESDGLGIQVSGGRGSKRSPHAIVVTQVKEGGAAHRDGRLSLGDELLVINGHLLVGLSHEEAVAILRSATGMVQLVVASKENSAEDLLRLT

T9: LNX2_3, Q8N448
T9 sequence (Q8N448 463-564, limits assumed, looked up): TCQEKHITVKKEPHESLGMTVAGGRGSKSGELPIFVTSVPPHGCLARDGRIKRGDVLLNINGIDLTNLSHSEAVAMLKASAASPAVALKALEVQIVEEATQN

T10: DFNB31_2, Q9P202
T10 sequence (Q9P202 274-371, limits assumed, looked up): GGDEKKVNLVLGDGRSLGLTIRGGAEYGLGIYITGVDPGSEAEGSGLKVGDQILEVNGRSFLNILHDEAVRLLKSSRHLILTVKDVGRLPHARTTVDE

T11: DVL3, Q92997
T11 sequence (Q92997 244-331, limits assumed, looked up): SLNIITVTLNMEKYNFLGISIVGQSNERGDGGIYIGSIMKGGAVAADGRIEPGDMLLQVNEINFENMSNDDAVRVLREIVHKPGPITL


Columns and labels:
Assay in all cases: holdup assay
Parameters in all cases: key: below the threshold = too weak to quantify, mostly under pKd 3.1 to 4
Conditions in all cases: plain residues with an end cap or a label only (N-terminal biotin on a linker: ttds)
LIMK2, P53671 = target: LIMK2, P53671
LIMK2, P53671, sequence (P53671 143-248): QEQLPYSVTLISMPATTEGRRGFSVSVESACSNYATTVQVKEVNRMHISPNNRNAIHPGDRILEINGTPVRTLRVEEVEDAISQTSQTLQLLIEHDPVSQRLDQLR

SNTB1, Q13884 = target: T1, SNTB1, Q13884
RAPGEF6, Q8TEU7 = target: T2, RAPGEF6, Q8TEU7
GRIP2_3, Q9C0E4 = target: GRIP2_3, Q9C0E4
GRIP2_3, Q9C0E4, sequence (Q9C0E4 238-339): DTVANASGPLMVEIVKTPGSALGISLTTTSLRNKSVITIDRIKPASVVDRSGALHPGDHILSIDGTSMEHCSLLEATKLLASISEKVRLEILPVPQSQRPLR

MPDZ_10, O75970 = target: T3, MPDZ_10, O75970
SCRIB_2, Q14160 = target: SCRIB_2, Q14160
SCRIB_2, Q14160, sequence (Q14160 857-960): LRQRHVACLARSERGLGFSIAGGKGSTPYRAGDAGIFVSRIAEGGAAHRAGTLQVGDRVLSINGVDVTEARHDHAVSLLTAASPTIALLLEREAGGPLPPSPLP

DLG1_1, Q12959 = target: DLG1_1, Q12959
APBA2_1, Q99767 = target: T4, APBA2_1, Q99767
IL16_3, Q14005 = target: IL16_3, Q14005
IL16_3, Q14005, sequence (Q14005 1107-1207): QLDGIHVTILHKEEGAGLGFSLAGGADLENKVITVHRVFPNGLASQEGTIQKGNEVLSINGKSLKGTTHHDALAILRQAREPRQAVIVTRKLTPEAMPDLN

TJP1_2, Q07157 = target: TJP1_2, Q07157
TJP1_2, Q07157, sequence (Q07157 181-274): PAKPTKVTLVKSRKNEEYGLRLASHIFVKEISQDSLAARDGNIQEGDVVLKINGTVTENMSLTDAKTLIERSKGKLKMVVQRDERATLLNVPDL

MPP6, Q9NZW5 = target: T5, MPP6, Q9NZW5
SCRIB_3, Q14160 = target: SCRIB_3, Q14160
SCRIB_3, Q14160, sequence (Q14160 999-1103): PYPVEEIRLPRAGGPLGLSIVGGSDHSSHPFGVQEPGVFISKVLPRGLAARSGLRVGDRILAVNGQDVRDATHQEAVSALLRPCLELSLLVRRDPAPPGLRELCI

NHERF4_1, Q86UT5-2 = target: NHERF4_1, Q86UT5-2
NHERF4_1, Q86UT5-2, sequence (Q86UT5 other isoform, or with tags, fused parts or gaps): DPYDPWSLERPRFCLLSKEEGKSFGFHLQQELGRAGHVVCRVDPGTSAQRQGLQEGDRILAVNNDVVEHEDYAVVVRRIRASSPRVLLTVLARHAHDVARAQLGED

IL16_4, Q14005 = target: IL16_4, Q14005
IL16_4, Q14005, sequence (Q14005 1229-1329): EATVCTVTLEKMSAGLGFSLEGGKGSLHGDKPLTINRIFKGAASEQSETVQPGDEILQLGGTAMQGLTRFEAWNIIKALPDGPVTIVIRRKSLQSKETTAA

ARHGEF11, O15085 = target: T6, ARHGEF11, O15085
APBA2_2, Q99767 = target: T7, APBA2_2, Q99767
PDZD2_2, O15018 = target: T8, PDZD2_2, O15018
LNX2_3, Q8N448 = target: T9, LNX2_3, Q8N448
GRASP, Q7Z6J2 = target: GRASP, Q7Z6J2
GRASP, Q7Z6J2, sequence (Q7Z6J2 96-193): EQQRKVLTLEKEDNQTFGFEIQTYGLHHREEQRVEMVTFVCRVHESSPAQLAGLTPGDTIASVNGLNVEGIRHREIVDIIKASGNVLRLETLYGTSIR

GRIP2_6, Q9C0E4 = target: GRIP2_6, Q9C0E4
GRIP2_6, Q9C0E4, sequence (Q9C0E4 648-740): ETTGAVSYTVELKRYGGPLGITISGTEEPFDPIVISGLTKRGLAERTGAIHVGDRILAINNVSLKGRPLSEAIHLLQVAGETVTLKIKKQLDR

DFNB31_2, Q9P202 = target: T10, DFNB31_2, Q9P202
TJP2_1, Q9UDY2 = target: TJP2_1, Q9UDY2
TJP2_1, Q9UDY2, sequence (Q9UDY2 24-128): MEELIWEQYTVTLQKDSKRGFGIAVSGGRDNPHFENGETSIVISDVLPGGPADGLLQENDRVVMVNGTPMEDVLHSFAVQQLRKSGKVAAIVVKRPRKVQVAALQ

SNX27, Q96L92 = target: SNX27, Q96L92
DVL3, Q92997 = target: T11, DVL3, Q92997
HTRA1, Q92743 = target: HTRA1, Q92743
HTRA1, Q92743, sequence (Q92743 360-477): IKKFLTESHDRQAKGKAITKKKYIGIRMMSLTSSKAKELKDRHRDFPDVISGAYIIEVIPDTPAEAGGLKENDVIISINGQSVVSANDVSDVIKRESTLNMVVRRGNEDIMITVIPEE

DLG5_1, Q8TDM6 = target: DLG5_1, Q8TDM6
DLG5_1, Q8TDM6, sequence (Q8TDM6 617-713): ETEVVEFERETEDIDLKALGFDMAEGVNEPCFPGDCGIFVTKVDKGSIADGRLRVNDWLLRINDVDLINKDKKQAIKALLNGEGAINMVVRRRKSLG

| Binder | pKd (LIMK2, P53671) | pKd (SNTB1, Q13884) | pKd (RAPGEF6, Q8TEU7) | pKd (GRIP2_3, Q9C0E4) | pKd (MPDZ_10, O75970) | pKd (SCRIB_2, Q14160) | pKd (DLG1_1, Q12959) | pKd (APBA2_1, Q99767) | pKd (IL16_3, Q14005) | pKd (TJP1_2, Q07157) | pKd (MPP6, Q9NZW5) | pKd (SCRIB_3, Q14160) | pKd (NHERF4_1, Q86UT5-2) | pKd (IL16_4, Q14005) | pKd (ARHGEF11, O15085) | pKd (APBA2_2, Q99767) | pKd (PDZD2_2, O15018) | pKd (LNX2_3, Q8N448) | pKd (GRASP, Q7Z6J2) | pKd (GRIP2_6, Q9C0E4) | further results |
| --- | --- | --- | --- | --- | --- | --- | --- | --- | --- | --- | --- | --- | --- | --- | --- | --- | --- | --- | --- | --- | --- |
| RLPKIKETTV [FRMPD4, Q14CM0] | below the threshold | 5.17 | below the threshold | below the threshold | below the threshold | 4.61 | 5.12 | below the threshold | below the threshold | below the threshold | below the threshold | 4.88 | below the threshold | below the threshold | 3.71 | below the threshold | 4.05 | below the threshold | 3.47 | 3.39 | pKd (DFNB31_2, Q9P202): 4.12; pKd (TJP2_1, Q9UDY2): below the threshold; pKd (SNX27, Q96L92): 5.73; pKd (DVL3, Q92997): 3.43; pKd (HTRA1, Q92743): 3.64; pKd (DLG5_1, Q8TDM6): below the threshold |
| RHTTSTETAV [HPV30-E6, P36809] | 3.85 | 5.1 | below the threshold | 3.61 | below the threshold | 5.11 | 4.93 | below the threshold | below the threshold | below the threshold | below the threshold | 5.02 | below the threshold | below the threshold | 4.35 | below the threshold | 4.42 | below the threshold | 3.96 | 3.77 | pKd (DFNB31_2, Q9P202): below the threshold; pKd (TJP2_1, Q9UDY2): below the threshold; pKd (SNX27, Q96L92): 5.64; pKd (DVL3, Q92997): below the threshold; pKd (HTRA1, Q92743): 3.73; pKd (DLG5_1, Q8TDM6): below the threshold |
| SSLQSLETSV [ATP2B4, P23634] | below the threshold | 5.59 | 3.72 | below the threshold | below the threshold | 4.9 | 5 | below the threshold | below the threshold | below the threshold | 3.56 | 5.11 | below the threshold | below the threshold | 4.43 | 3.59 | 4.56 | below the threshold | 3.6 | below the threshold | pKd (DFNB31_2, Q9P202): below the threshold; pKd (TJP2_1, Q9UDY2): 3.62; pKd (SNX27, Q96L92): 5.7; pKd (DVL3, Q92997): 3.6; pKd (HTRA1, Q92743): 3.9; pKd (DLG5_1, Q8TDM6): below the threshold |
